Patent US12702694B2, “Methods for identification, assessment, prevention, and treatment of metabolic disorders using SLIT2” (Dana-Farber Cancer Institute, Inc., priority 2015, dated 2026)

B1: Slit2: Slit family secreted extracellular matrix protein, full length ~180 kDa; used as commercial recombinant protein or adenovirally expressed (protein)
chain: QACPAQCSCSGSTVDCHGLALRSVPRNIPRNTERLDLNGNNITRITKIDFAGLRHLRVLQLMENRISTIERGAFQDLKELERLRLNRNNLQLFPELLFLGTAKLYRLDLSENQIQAIPRKAFRGAVDIKNLQLDYNQISCIEDGAFRALRDLEVLTLNNNNITRLSVASFNHMPKLRTFRLHSNNLYCDCHLAWLSDWLRQRPRVGLYTQCMGPSHLRGHNVAEVQKREFVCSGHQSFMAPSCSVLHCPAACTCSNNIVDCRGKGLTEIPTNLPETITEIRLEQNSIRVIPPGAFSPYKKLRRLDLSNNQISELAPDAFQGLRSLNSLVLYGNKITELPKSLFEGLFSLQLLLLNANKINCLRVDAFQDLHNLNLLSLYDNKLQTVAKGTFSALRAIQTMHLAQNPFICDCHLKWLADYLHTNPIETSGARCTSPRRLANKRIGQIKSKKFRCSGTEDYRSKLSGDCFADLACPEKCRCEGTTVDCSNQRLNKIPDHIPQYTAELRLNNNEFTVLEATGIFKKLPQLRKINFSNNKITDIEEGAFEGASGVNEILLTSNRLENVQHKMFKGLESLKTLMLRSNRISCVGNDSFIGLGSVRLLSLYDNQITTVAPGAFDSLHSLSTLNLLANPFNCNCHLAWLGEWLRRKRIVTGNPRCQKPYFLKEIPIQDVAIQDFTCDDGNDDNSCSPLSRCPSECTCLDTVVRCSNKGLKVLPKGIPKDVTELYLDGNQFTLVPKELSNYKHLTLIDLSNNRISTLSNQSFSNMTQLLTLILSYNRLRCIPPRTFDGLKSLRLLSLHGNDISVVPEGAFNDLSALSHLAIGANPLYCDCNMQWLSDWVKSEYKEPGIARCAGPGEMADKLLLTTPSKKFTCQGPVDITIQAKCNPCLSNPCKNDGTCNNDPVDFYRCTCPYGFKGQDCDVPIHACISNPCKHGGTCHLKEGENAGFWCTCADGFEGENCEVNIDDCEDNDCENNSTCVDGINNYTCLCPPEYTGELCEEKLDFCAQDLNPCQHDSKCILTPKGFKCDCTPGYIGEHCDIDFDDCQDNKCKNGAHCTDAVNGYTCVCPEGYSGLFCEFSPPMVLPRTSPCDNFDCQNGAQCIIRINEPICQCLPGYLGEKCEKLVSVNFVNKESYLQIPSAKVRPQTNITLQIATDEDSGILLYKGDKDHIAVELYRGRVRASYDTGSHPASAIYSVETINDGNFHIVELLTLDSSLSLSVDGGSPKVITNLSKQSTLNFDSPLYVGGMPGKNNVASLRQAPGQNGTSFHGCIRNLYINSELQDFRKMPMQTGILPGCEPCHKKVCAHGMCQPSSQSGFTCECEEGWMGPLCDQRTNDPCLGNKCVHGTCLPINAFSYSCKCLEGHGGVLCDEEEDLFNPCQMIKCKHGKCRLSGVGQPYCECNSGFTGDSCDREISCRGERIRDYYQKQQGYAACQTTKKVSRLECRGGCAGGQCCGPLRSKRRKYSFECTDGSSFVDEVEKVVKCGCARCAS
B2: Slit2-C: ~50 kDa C-terminal cleavage fragment of Slit2 beginning at TSP (SEQ ID NO: 22); adenovirally expressed or purified FLAG-tagged protein (protein, listed as Homo sapiens)
chain: TSPCDNFDCQNGAQCIIRINEPICQCLPGYLGEKCEKLVSVNFVNKESYLQIPSAKVRPQTNITLQIATDEDSGILLYKGDKDHIAVELYRGRVRASYDTGSHPASAIYSVETINDGNFHIVELLTLDSSLSLSVDGGSPKVITNLSKQSTLNFDSPLYVGGMPGKNNVASLRQAPGQNGTSFHGCIRNLYINSELQDFRKMPMQTGILPGCEPCHKKVCAHGMCQPSSQSGFTCECEEGWMGPLCDQRTNDPCLGNKCVHGTCLPINAFSYSCKCLEGHGGVLCDEEEDLFNPCQMIKCKHGKCRLSGVGQPYCECNSGFTGDSCDREISCRGERIRDYYQKQQGYAACQTTKKVSRLECRGGCAGGQCCGPLRSKRRKYSFECTDGSSFVDEVEKVVKCGCARCAS
modifications: FLAG tag
notes: adenovirally expressed or purified FLAG-tagged protein

Key:
diet-induced obese mice = experiment: Intraperitoneal glucose tolerance test; type: in vivo, Mus musculus
Description: (§1) Glucose tolerance tests were performed on mice 7 days post-injection with adenovirus. […] Animals were fasted overnight and then received intraperitoneal glucose at […]. Energy expenditure was analyzed using a Comprehensive Lab Animal Monitoring System (Columbus Instruments). Cold exposure and thermoneutrality experiments were performed in Balb/c mice at 4° C. or 30° C., respectively. Total levels of cholesterol, free fatty acids, triglycerides and insulin were measured at the Core Facility at Joslin Diabetes Center.

[1] = system: primary inguinal adipocytes; experiment: Thermogenic gene expression (qRT-PCR) in primary adipocytes treated with recombinant protein; type: cell-based, Mus musculus
Description: Inguinal and brown stromal-vascular fractions were obtained from 6 weeks old male or newborn mice (postnatal days 5-10) for white and brown fat cultures, respectively. Inguinal fat tissue was dissected and washed with PBS, minced and digested for 45 min at 37° C. in PBS containing 10 mM CaCl2), 2.4 U/ml dispase II (Roche) and 10 mg/ml collagenase D (Roche). Brown fat tissue was dissected, washed with PBS, minced and digested for 45 min at 37° C. in PBS containing 1.3 mM CaCl2, 123 mM NaCl, 5 mM KCl, 5.0 mM glucose, 100 mM HEPES, 4% BSA and 1.5 mg/ml collagenase B (Roche). Digested tissue was filtered through a 100-μm cell strainer and centrifuged at 600 g for 10 min. Pelleted inguinal stromal-vascular cells were grown to confluence and induced to differentiate by an adipogenic cocktail containing 0.02 μM insulin, 1 μM rosiglitazone, 5 μM dexamethasone, 0.5 μM isobuthylmethylxanthine. For differentiation of brown fat cells, 1 nM T3 and 125 μM indomethacin were also added to the adipogenic cocktail. Two days after induction, cells were maintained in adipocyte culture medium containing 0.02 μM insulin and 1 μM rosiglitazone. Where indicated, cells were treated with forskolin (10 μM), norepinephrine (100 nM) for 4 h or with recombinant proteins (1 μg/ml, R&D systems) for 24 h or for the indicated times. For adenoviral overexpression of Slit2-FL, Slit2-N, Slit2-C, LacZ or Cre, virus was added at day 2 of differentiation at a titer of 10^8 particles/well and cells were analyzed at day 6-7. […]
RNA was extracted from cultured cells or frozen tissue samples using TRIzol®, purified with QIAGEN RNeasy® minicolumns. Normalized RNA was reversed transcribed using a high-capacity cDNA reverse transcription lot (Applied Biosystems) and cDNA was analyzed by qRT-CPR. Relative mRNA levels were calculated using the comparative CT method and normalized to cyclophilin […]. […]

PKA signaling pathway = experiment: Western blotting of PKA and related signaling in primary inguinal cells; type: cell-based, Mus musculus; details: for PKA signaling after treatment with conditioned media: serum-free conditioned media from expressing cells, acute treatment (30 min), FIG. 10G
Description: Inguinal and brown stromal-vascular fractions were obtained from 6 weeks old male or newborn mice (postnatal days 5-10) for white and brown fat cultures, respectively. Inguinal fat tissue was dissected and washed with PBS, minced and digested for 45 min at 37° C. in PBS containing 10 mM CaCl2), 2.4 U/ml dispase II (Roche) and 10 mg/ml collagenase D (Roche). Brown fat tissue was dissected, washed with PBS, minced and digested for 45 min at 37° C. in PBS containing 1.3 mM CaCl2, 123 mM NaCl, 5 mM KCl, 5.0 mM glucose, 100 mM HEPES, 4% BSA and 1.5 mg/ml collagenase B (Roche). Digested tissue was filtered through a 100-μm cell strainer and centrifuged at 600 g for 10 min. Pelleted inguinal stromal-vascular cells were grown to confluence and induced to differentiate by an adipogenic cocktail containing 0.02 μM insulin, 1 μM rosiglitazone, 5 μM dexamethasone, 0.5 μM isobuthylmethylxanthine. For differentiation of brown fat cells, 1 nM T3 and 125 μM indomethacin were also added to the adipogenic cocktail. Two days after induction, cells were maintained in adipocyte culture medium containing 0.02 μM insulin and 1 μM rosiglitazone. Where indicated, cells were treated with forskolin (10 μM), norepinephrine (100 nM) for 4 h or with recombinant proteins (1 μg/ml, R&D systems) for 24 h or for the indicated times. For adenoviral overexpression of Slit2-FL, Slit2-N, Slit2-C, LacZ or Cre, virus was added at day 2 of differentiation at a titer of 10^8 particles/well and cells were analyzed at day 6-7. Where indicated, cells were treated with the drugs Erlotinib (SelleckChem), Lapatinib (Santa Cruz), PD0325901 (Santa Cruz), Propranolol (SelleckChem), H89 dihydrochloride (Santa Cruz), SQ-22536 (Santa Cruz) for indicated time points and concentrations.
(§2) For Western blotting, homogenized tissues, whole cell lysates, or concentrated serum free conditioned medium were lysed in RIPA buffer containing protease inhibitor cocktail (Thermo Scientific) and phosphatase inhibitor cocktail (Thermo Scientific), separated by SDS-PAGE and transferred to Immobilon-P® membranes (Millipore). For Western blotting of plasma samples, 1 μl of plasma was prepared containing 2× sample buffer (Invitrogen) with reducing agent, boiled and analyzed using Western blot against V5, FLAG, or the indicated antibody. V5-antibody was from Life Technologies and anti-Flag M2-HRP (A8592) from Sigma Aldrich. Anti-Slit2 antibody used was from Abcam (Abcam ab134166). Phospho-PKA Substrate, phospho-PKC Substrate, phospho-ERK1/2, total ERK, phospho-AKT, total AKT, phospho-AMPK, total AMPK, phospho-ATGL, ATGL, phospho-EGFR and EGFR were from Cell Signaling. Protein array was from R&D Systems (Proteome Profiler Mouse Phospho-RTK Array Kit, ARY014). Silverstain (SilverQuest™ Silver Staining Kit, LC6070) was purchased from Thermo Fisher.

[2] = system: receptor tyrosine kinases and intracellular kinases; experiment: Phosphokinase array in primary inguinal cells; type: cell-based, Mus musculus; details: Slit2-C vs lacZ adenovirus, primary inguinal adipocytes
Description: as §2

[3] = system: primary inguinal fat cells; experiment: Cellular oxygen consumption measured by Seahorse; type: cell-based, Mus musculus; details: recombinant Slit2-C 1 ug/mL (Calico/AbbVie), acute or 2 h treatment; FIG. 13
Description: Tissue respiration was performed using a Clark electrode (Stathkelvin Instruments). Freshly isolated tissues were dissected from mice treated with LacZ or Slit2-C adenovirus for 7 days. Equally sized pieces of tissue were minced and placed in respiration buffer containing PBS supplemented with 2% (w/v) bovine serum albumin, 1% (w/v) glucose, and 1 mM Na pyruvate. Oxygen (O2) consumption was normalized to tissue weight. Cellular oxygen consumption rates were determined using an XF24 Extracellular Flux Analyzer (Seahorse Biosciences). Primary brown fat adipocytes were seeded at 15,000 cells/well, differentiation was induced the following day as previously described, and the cells were analyzed on day 5. On the day of analysis, the cells were washed once with Seahorse respiration buffer (8.3 g/l DMEM, 1.8 g/l NaCl, 1 mM pyruvate, 20 mM glucose, pen/strep), placed in 0.5 ml Seahorse respiration buffer, and incubated in a C02-free incubator for 1 hr. […]
As described above in Examples 5-7, in vitro and in vivo data on respiration using Slit2-C adenovirus overexpression models and loss-of-function analyses in Seahorse assays are described. In vitro confirmation of the results was determined using an alternative source of recombinant Slit2-C (FIG. 13). […] Cellular oxygen consumption rates were determined as described in Example 1 Statistical analysis was performed as described in Example 1C above.

[4] = Plasma cholesterol, triglycerides and insulin; type: in vivo, Mus musculus; details: 7 days post-injection
Description: as §1

[5] = system: inguinal white fat tissue and brown fat tissue; experiment: Tissue respiration (Clark electrode) of minced adipose tissue; type: in vivo, Mus musculus; details: day 7 after adenovirus injection
Description: Tissue respiration was performed using a Clark electrode (Stathkelvin Instruments). Freshly isolated tissues were dissected from mice treated with LacZ or Slit2-C adenovirus for 7 days. Equally sized pieces of tissue were minced and placed in respiration buffer containing PBS supplemented with 2% (w/v) bovine serum albumin, 1% (w/v) glucose, and 1 mM Na pyruvate. Oxygen (O2) consumption was normalized to tissue weight. Cellular oxygen consumption rates were determined using an XF24 Extracellular Flux Analyzer (Seahorse Biosciences). Primary brown fat adipocytes were seeded at 15,000 cells/well, differentiation was induced the following day as previously described, and the cells were analyzed on day 5. On the day of analysis, the cells were washed once with Seahorse respiration buffer (8.3 g/l DMEM, 1.8 g/l NaCl, 1 mM pyruvate, 20 mM glucose, pen/strep), placed in 0.5 ml Seahorse respiration buffer, and incubated in a C02-free incubator for 1 hr. Port injection solutions were prepared as follows: oligomycin (1 μM final concentration), norepinephrine (1 μM final concentration), FCCP (0.2 μM final concentration), and rotenone (3 μM final concentration). Each cycle consisted of the following: mix 4 min, wait 0 min, and measure 2 min. Data are presented as S.E.M.

[6] = Slit2-C-transduced cells, FIG. 10B

Row | Molecule | glucose tolerance, compared with Slit2-C experiments (diet-induced obese mice; full-length Slit2 adenovirus, FIG. 9F) | expression of other genes associated with thermogenesis, including Dio2 and Cidea ([1]; recombinant Slit2 protein 1 μg/ml, 24 hours, FIG. 3A) | increase in Ucp1 mRNA ([1]; recombinant Slit2 protein 1 μg/ml, 24 hours, fully differentiated primary inguinal adipocytes, FIG. 3A) | PKA signaling after treatment with conditioned media (PKA signaling pathway) | glucose tolerance (diet-induced obese mice; diet-induced obese mice, circulating Slit2-C, day 7, FIG. 8G) | changes in thermogenic gene expression in white and brown adipocytes in culture ([1]; 2 h after purified protein treatment, FIG. 10N) | activation of protein kinase C (PKC) substrates and ATGL S406 (PKA signaling pathway; FIG. 10E) | protein levels of UCP1 (PKA signaling pathway; Slit2-C overexpression, FIGS. 10B, 10F) | phosphorylation of hormone sensitive lipase (HSL S660) (PKA signaling pathway; [6]) | total HSL (PKA signaling pathway; [6]) | phosphorylation of PKA substrates (PKA signaling pathway; Slit2-C-transduced vs lacZ-transduced cells, FIG. 10B) | subset of PKA substrate phosphorylations after purified protein treatment (PKA signaling pathway; time-dependent and dose-dependent, FIGS. 10M, 11F) | phospho-EGFR and phospho-ERK1/2 (only two of 39 kinases tested) [2] | cellular oxygen consumption vs results of Examples 5-7 [3] | total plasma cholesterol ([4]; FIG. 9G) | plasma triglycerides ([4]; FIG. 9H) | non-fasting insulin levels ([4]; FIG. 9I) | O2 consumption of inguinal tissue ([5]; did not reach significance) | O2 consumption of BAT ([5]; reached significance)
1 | B1 | comparable results | large increases | ~ 3 fold | increased |  |  |  |  |  |  |  |  |  |  |  |  |  |  | 
2 | B2 |  |  |  | increased | dramatically improve | induced | minimal | increased | induced | unaffected | robust phosphorylation | increased | robust phosphorylation changes | confirm the results | not affected | not affected | not affected | elevated | elevated
